Targets include RIMS2, Q9UQ26; TJP1_1, Q07157; IL16_2, Q14005; PARD3B_3, Q8TEW8; MAGI3_4, Q5TCQ9; RGS3, P49796-9; PARD3_1, Q8TEW0; GIPC3, Q8TF64.
Holding throughout (experiment): holdup assay
What all share (set-up): key: below the threshold = too weak to quantify, mostly under pKd 3.1 to 4

The next experiment has as its target T1, SHROOM3, Q8TF72.
T1 sequence (Q8TF72 20-120, limits assumed, looked up): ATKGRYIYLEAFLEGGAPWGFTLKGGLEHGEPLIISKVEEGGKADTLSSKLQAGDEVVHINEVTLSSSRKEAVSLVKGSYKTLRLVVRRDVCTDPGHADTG

A further experiment deals with T2, GRIP1_1, Q9Y3R0.
T2 sequence (Q9Y3R0 48-146, limits assumed, looked up): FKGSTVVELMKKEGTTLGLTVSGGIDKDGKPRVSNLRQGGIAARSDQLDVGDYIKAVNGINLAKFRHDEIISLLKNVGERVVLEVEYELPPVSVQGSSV

The target of the next experiment is T3, MLLT4, P55196.
T3 sequence (P55196 1002-1103, limits assumed, looked up): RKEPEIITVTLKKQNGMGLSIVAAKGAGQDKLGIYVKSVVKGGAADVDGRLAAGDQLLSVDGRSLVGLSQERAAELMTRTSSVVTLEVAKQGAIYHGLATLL

Another experiment deals with T4, PDLIM3, Q53GG5.
T4 sequence (Q53GG5 1-94, limits assumed, looked up): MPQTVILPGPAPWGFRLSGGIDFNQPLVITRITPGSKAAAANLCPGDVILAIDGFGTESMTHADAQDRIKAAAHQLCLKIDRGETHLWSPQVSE

The target in a further experiment is T5, CNKSR1, Q969H4.
T5 sequence (Q969H4 191-295, limits assumed, looked up): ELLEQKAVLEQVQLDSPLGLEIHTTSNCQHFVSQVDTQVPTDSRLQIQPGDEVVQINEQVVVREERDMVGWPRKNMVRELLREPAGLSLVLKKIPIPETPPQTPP

A further experiment deals with T6, MPDZ_7, O75970.
T6 sequence (O75970 1146-1253, limits assumed, looked up): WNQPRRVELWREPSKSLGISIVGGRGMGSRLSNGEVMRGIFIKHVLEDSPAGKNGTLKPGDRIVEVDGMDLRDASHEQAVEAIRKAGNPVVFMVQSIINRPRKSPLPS

A further experiment has as its target T7, MPP1, Q00013.
T7 sequence (Q00013 66-162, limits assumed, looked up): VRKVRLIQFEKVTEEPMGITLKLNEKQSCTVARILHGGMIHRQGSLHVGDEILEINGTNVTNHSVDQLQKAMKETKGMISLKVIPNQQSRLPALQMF

Another experiment concerns the target T8, MAGI2_1, Q86UL8.
T8 sequence (Q86UL8 12-111, limits assumed, looked up): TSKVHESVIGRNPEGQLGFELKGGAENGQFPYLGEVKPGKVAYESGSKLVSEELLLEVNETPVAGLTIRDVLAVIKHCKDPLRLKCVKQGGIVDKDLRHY

In a further experiment the target is T9, PDZD11, Q5EBL8.
T9 sequence (Q5EBL8 42-139, limits assumed, looked up): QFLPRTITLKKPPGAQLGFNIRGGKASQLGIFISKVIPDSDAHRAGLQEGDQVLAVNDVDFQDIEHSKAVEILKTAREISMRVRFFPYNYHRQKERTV

For a further experiment, the target named is T10, MPDZ_2, O75970.
T10 sequence (O75970 252-347, limits assumed, looked up): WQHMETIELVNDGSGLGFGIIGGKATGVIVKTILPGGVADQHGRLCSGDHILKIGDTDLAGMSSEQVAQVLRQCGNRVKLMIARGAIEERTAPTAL

The target in another experiment is T11, GIPC1, O14908.
T11 sequence (O14908 128-223, limits assumed, looked up): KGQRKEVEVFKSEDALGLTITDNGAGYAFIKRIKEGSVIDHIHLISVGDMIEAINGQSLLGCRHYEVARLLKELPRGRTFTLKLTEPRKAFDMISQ

For the next experiment, the target named is T12, NHERF1_1, O14745.
T12 sequence (O14745 9-104, limits assumed, looked up): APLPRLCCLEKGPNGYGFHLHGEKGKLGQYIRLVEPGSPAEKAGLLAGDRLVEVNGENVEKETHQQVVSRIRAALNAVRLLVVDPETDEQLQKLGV

Another experiment has as its target T13, TJP3_2, O95049.
T13 sequence (O95049 190-282, limits assumed, looked up): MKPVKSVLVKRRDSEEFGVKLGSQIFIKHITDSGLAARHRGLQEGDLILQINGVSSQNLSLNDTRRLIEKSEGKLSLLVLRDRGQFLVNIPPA

A further experiment deals with Q9UDY2. The settings on record: plain residues with an end cap or a label only (N-terminal biotin on a linker: ttds).
The target of a further experiment is Q8TEW0. The note with it: plain residues with an end cap or a label only (N-terminal biotin on a linker: ttds).
In another experiment the target is Q9UMS6. The settings on record: plain residues with an end cap or a label only (N-terminal biotin on a linker: ttds).
The target in a further experiment is Q9ULJ8. The note with it: plain residues with an end cap or a label only (N-terminal biotin on a linker: ttds).
The mark [1] stands for this setting: plain residues with an end cap or a label only (N-terminal biotin on a linker: ttds).
Where [2] appears, read: plain residues with an end cap or a label only (N-terminal biotin on a linker: none).

Consider five molecules from PMC9482650, “Quantitative fragmentomics allow affinity mapping of interactomes” (Nature Communications, 2022).

Sequence of MAGI3_4, Q5TCQ9 (Q5TCQ9 716-815): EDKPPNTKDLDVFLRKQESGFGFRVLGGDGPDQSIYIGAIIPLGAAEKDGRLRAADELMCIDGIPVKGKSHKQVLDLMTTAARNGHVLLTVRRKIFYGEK
Sequence of RGS3, P49796-9 (P49796 other isoform, or with tags, fused parts or gaps): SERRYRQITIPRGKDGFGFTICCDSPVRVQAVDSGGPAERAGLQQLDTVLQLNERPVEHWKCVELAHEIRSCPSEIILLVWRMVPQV
Sequence of PARD3B_3, Q8TEW8 (Q8TEW8 490-594): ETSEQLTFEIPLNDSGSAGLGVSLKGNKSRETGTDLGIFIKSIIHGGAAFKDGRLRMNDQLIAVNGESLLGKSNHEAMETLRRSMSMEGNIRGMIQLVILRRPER
Sequence of TJP1_1, Q07157 (Q07157 18-120): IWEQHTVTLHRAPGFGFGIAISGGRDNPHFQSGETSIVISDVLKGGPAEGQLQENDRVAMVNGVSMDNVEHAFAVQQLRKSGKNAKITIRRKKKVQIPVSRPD
Sequence of RIMS2, Q9UQ26 (Q9UQ26 637-758): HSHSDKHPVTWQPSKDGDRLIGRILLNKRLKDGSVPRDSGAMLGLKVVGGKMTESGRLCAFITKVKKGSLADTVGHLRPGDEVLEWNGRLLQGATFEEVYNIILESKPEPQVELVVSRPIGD
Sequence of IL16_2, Q14005 (Q14005 350-450): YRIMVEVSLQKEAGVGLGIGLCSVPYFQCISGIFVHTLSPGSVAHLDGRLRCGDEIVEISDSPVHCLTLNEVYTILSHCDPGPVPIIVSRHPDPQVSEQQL
Sequence of PARD3_1, Q8TEW0 (Q8TEW0 264-372): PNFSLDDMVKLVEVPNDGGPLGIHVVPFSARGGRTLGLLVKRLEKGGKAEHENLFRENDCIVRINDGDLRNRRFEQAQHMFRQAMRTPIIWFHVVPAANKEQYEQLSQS
Sequence of GIPC3, Q8TF64 (Q8TF64 107-202): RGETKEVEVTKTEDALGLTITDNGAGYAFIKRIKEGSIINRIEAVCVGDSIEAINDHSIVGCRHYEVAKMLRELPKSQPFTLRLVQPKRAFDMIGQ

B1: HPV18-E6, P06463 (peptide)
chain: RLQRRRETQV
Take B1: the pKd result with RIMS2, Q9UQ26 (setting [1]) was “below the threshold”; with SHROOM3, Q8TF72 (setting [1]) it was “below the threshold”; in the experiment with GRIP1_1, Q9Y3R0 (setting [1]), “below the threshold”; with MLLT4, P55196 (setting [1]), “below the threshold”; in the experiment with TJP1_1, Q07157 (setting [1]), “below the threshold”; with PDLIM3, Q53GG5 (setting [1]) it was “below the threshold”. The negative-log Kd (pKd) entry in the experiment with CNKSR1, Q969H4 (setting [1]) is given as “below the threshold”; in the experiment with IL16_2, Q14005 (setting [1]) it was “below the threshold”; in the experiment with MPDZ_7, O75970 (setting [1]), “below the threshold”; in the experiment with MPP1, Q00013 (setting [1]), “below the threshold”; with MAGI2_1, Q86UL8 (setting [1]), “below the threshold”; with PARD3B_3, Q8TEW8 (setting [1]) it was “below the threshold”. The negative-log Kd (pKd) entry with PDZD11, Q5EBL8 (setting [1]) is “below the threshold”; with MPDZ_2, O75970 (setting [1]) it was “below the threshold”; in the experiment with MAGI3_4, Q5TCQ9 (setting [1]), “below the threshold”; with GIPC1, O14908 (setting [1]) it was 4.44; in the experiment with NHERF1_1, O14745 (setting [1]), “below the threshold”; with RGS3, P49796-9 (setting [1]), “below the threshold”. Further, the pKd entry is reported as “below the threshold” with TJP3_2, O95049 (setting [1]); “below the threshold” with PARD3_1, Q8TEW0 (setting [1]); “below the threshold” with GIPC3, Q8TF64 (setting [1]).

B2: HPV73-E6, Q82005 (peptide)
chain: SGSRPSATVV
Take B2: the pKd result in the experiment with RIMS2, Q9UQ26 (setting [1]) is “below the threshold”; with SHROOM3, Q8TF72 (setting [1]), “below the threshold”; in the experiment with GRIP1_1, Q9Y3R0 (setting [1]), “below the threshold”; with MLLT4, P55196 (setting [1]) it was “below the threshold”; with TJP1_1, Q07157 (setting [1]), “below the threshold”; with PDLIM3, Q53GG5 (setting [1]), “below the threshold”. The pKd entry with CNKSR1, Q969H4 (setting [1]) was “below the threshold”; with IL16_2, Q14005 (setting [1]), “below the threshold”; with MPDZ_7, O75970 (setting [1]), “below the threshold”; with MPP1, Q00013 (setting [1]) it was 4.14; with MAGI2_1, Q86UL8 (setting [1]), “below the threshold”; in the experiment with PARD3B_3, Q8TEW8 (setting [1]) it was “below the threshold”. Also, the pKd result in the experiment with PDZD11, Q5EBL8 (setting [1]) was “below the threshold”; with MAGI3_4, Q5TCQ9 (setting [1]), “below the threshold”; with GIPC1, O14908 (setting [1]), 4.64; with NHERF1_1, O14745 (setting [1]) it was “below the threshold”; with RGS3, P49796-9 (setting [1]) it was “below the threshold”; with TJP3_2, O95049 (setting [1]), “below the threshold”. Besides, the pKd entry was “below the threshold” in the experiment with PARD3_1, Q8TEW0 (setting [1]) and “below the threshold” with GIPC3, Q8TF64 (setting [1]).

B3: HPV35-E6, P27228 (peptide)
chain: SKPTRRETEV
For the molecule B3, the pKd entry with RIMS2, Q9UQ26 (setting [1]) is “below the threshold”; with SHROOM3, Q8TF72 (setting [1]), “below the threshold”; in the experiment with GRIP1_1, Q9Y3R0 (setting [1]) it was “below the threshold”; with MLLT4, P55196 (setting [1]) it was 3.79; in the experiment with TJP1_1, Q07157 (setting [1]) it was “below the threshold”; in the experiment with PDLIM3, Q53GG5 (setting [1]) it was “below the threshold”. The pKd with IL16_2, Q14005 (setting [1]) was 3.57; in the experiment with MPDZ_7, O75970 (setting [1]) it was “below the threshold”; in the experiment with MPP1, Q00013 (setting [1]) it was “below the threshold”; in the experiment with PARD3B_3, Q8TEW8 (setting [1]) it was 3.73; in the experiment with PDZD11, Q5EBL8 (setting [1]), “below the threshold”; with MPDZ_2, O75970 (setting [1]), “below the threshold”. Moreover, the pKd is 3.76 with MAGI3_4, Q5TCQ9 (setting [1]); 4.69 with GIPC1, O14908 (setting [1]); “below the threshold” with NHERF1_1, O14745 (setting [1]); “below the threshold” in the experiment with RGS3, P49796-9 (setting [1]); “below the threshold” in the experiment with PARD3_1, Q8TEW0 (setting [1]).

B4: ATP2B4, P23634 (peptide)
chain: SSLQSLETSV
Take B4: the pKd entry with RIMS2, Q9UQ26 (setting [1]) is reported as “below the threshold”; with SHROOM3, Q8TF72 (setting [1]), “below the threshold”; with GRIP1_1, Q9Y3R0 (setting [1]) it was “below the threshold”; in the experiment with MLLT4, P55196 (setting [1]) it was “below the threshold”; with TJP1_1, Q07157 (setting [1]), “below the threshold”; with Q9UDY2, “below the threshold”. Moreover, the pKd entry in the experiment with PDLIM3, Q53GG5 (setting [1]) was “below the threshold”; in the experiment with CNKSR1, Q969H4 (setting [1]), “below the threshold”; with IL16_2, Q14005 (setting [1]), “below the threshold”; with Q8TEW0, “below the threshold”; with MPDZ_7, O75970 (setting [1]), “below the threshold”; with MPP1, Q00013 (setting [1]) it was 4.23. The pKd result with MAGI2_1, Q86UL8 (setting [1]) is recorded as “below the threshold”; in the experiment with PARD3B_3, Q8TEW8 (setting [1]) it was “below the threshold”; with Q9UMS6 it was “below the threshold”; with PDZD11, Q5EBL8 (setting [1]), “below the threshold”; with MPDZ_2, O75970 (setting [1]) it was “below the threshold”; in the experiment with MAGI3_4, Q5TCQ9 (setting [1]) it was “below the threshold”. Besides, the pKd entry is on record as “below the threshold” with NHERF1_1, O14745 (setting [1]); “below the threshold” in the experiment with RGS3, P49796-9 (setting [1]); “below the threshold” in the experiment with Q9ULJ8; “below the threshold” in the experiment with TJP3_2, O95049 (setting [1]); “below the threshold” with PARD3_1, Q8TEW0 (setting [1]); “below the threshold” with GIPC3, Q8TF64 (setting [1]).

B5: SARS-CoV2-E, P0DTC4 (peptide)
chain: NLNSSRVPDLLV
Take B5: the negative logarithm of the Kd (pKd) result was “below the threshold” with RIMS2, Q9UQ26 (setting [2]); “below the threshold” with SHROOM3, Q8TF72 (setting [2]); “below the threshold” with GRIP1_1, Q9Y3R0 (setting [2]); 4.1 with MLLT4, P55196 (setting [2]); “below the threshold” with TJP1_1, Q07157 (setting [2]); “below the threshold” with PDLIM3, Q53GG5 (setting [2]). For the same molecule, the pKd result with CNKSR1, Q969H4 (setting [2]) is on record as “below the threshold”; with IL16_2, Q14005 (setting [2]), “below the threshold”; with MPDZ_7, O75970 (setting [2]), “below the threshold”; with MPP1, Q00013 (setting [2]), “below the threshold”; in the experiment with MAGI2_1, Q86UL8 (setting [2]) it was “below the threshold”; with PARD3B_3, Q8TEW8 (setting [2]), “below the threshold”. Further, the negative logarithm of the Kd (pKd) result with PDZD11, Q5EBL8 (setting [2]) is “below the threshold”; in the experiment with MPDZ_2, O75970 (setting [2]) it was “below the threshold”; with MAGI3_4, Q5TCQ9 (setting [2]), “below the threshold”; with GIPC1, O14908 (setting [2]), “below the threshold”; with NHERF1_1, O14745 (setting [2]), “below the threshold”; in the experiment with RGS3, P49796-9 (setting [2]), “below the threshold”. Besides, the pKd entry with TJP3_2, O95049 (setting [2]) was “below the threshold”; in the experiment with PARD3_1, Q8TEW0 (setting [2]), “below the threshold”; in the experiment with GIPC3, Q8TF64 (setting [2]) it was “below the threshold”.

A word on the pKd: it is the Kd on a negative log10 scale, so that one unit is a factor of ten.
